Test results taken from the supplement of paper PMC6757056.
± gives the standard deviation of the averaged measurements.

B1: library; a variant is named by its letters at N, in order (parent)
chain: GCUGUCACCGGUGUAUUACCCUAGUGGUCGACCGGUCUGAUGAGUCUNNNNNNAGACGAAACAGC

Legend:
hypoxanthine [1] = variants of: B1; experiment: FACS-Seq fitted mean relative fluorescence mCherry/BFP without ligand (log10 relative fluorescence); ligand: hypoxanthine (xanthine aptamer); higher = higher reporter protein expression; conditions: HEK293T, ligand present: no
How it was run: (§1)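 With or without ligand for 48 h, enriched HEK293T libraries carrying a lentiviral ribozyme-switch mCherry reporter and EF1α-BFP were sorted into 6 mCherry/BFP bins. Bin genomic DNA was amplified by PCR, barcoded and sequenced on MiSeq. Fluorescence was taken from normal fits to the resulting bin counts. Each fitted mean of log10(mCherry/BFP) was scaled to five spiked-in control ribozymes.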

hypoxanthine [2] = variants of: B1; experiment: normalized RNA/DNA level with ligand (relative to sTRSVctl = 100) (log10 (% of sTRSVctl)); ligand: hypoxanthine (xanthine aptamer); higher = less ribozyme self-cleavage, higher mRNA level; conditions: ligand concentration (+) RNA-Seq: 5 mM, HEK293T, reporter: mCherry (pCS4076), ligand present: yes
How it was run: (§2)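 Total RNA, extracted with EDTA 72 h after HEK293T cells were transfected with 4 µg per 6-well well of reporter-linked ribozyme switch library plasmids, was reverse-transcribed, amplified, barcoded and sequenced. Ligand, if used, was added 1 h before transfection. RNA level was derived from RNA reads divided by DNA reads and normalized to a spiked-in non-cleaving sequence or to the top sequences. This was multiplied by 100 and log10-transformed, with the top set of 25 sequences and a ≥100 DNA read minimum.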

hypoxanthine [3] = variants of: B1; experiment: normalized RNA/DNA level without ligand (relative to sTRSVctl = 100) (log10 (% of sTRSVctl)); ligand: hypoxanthine (xanthine aptamer); higher = less ribozyme self-cleavage, higher mRNA level; conditions: HEK293T, reporter: mCherry (pCS4076), ligand present: no
How it was run: as §2

hypoxanthine [4] = variants of: B1; experiment: FACS-Seq fitted mean relative fluorescence mCherry/BFP with ligand (log10 relative fluorescence); ligand: hypoxanthine (xanthine aptamer); ligand concentration (+) FACS-Seq: 5 mM; higher = higher reporter protein expression; conditions: HEK293T, ligand present: yes
How it was run: as §1

| Variant | FACS-Seq fitted mean (log10) (hypoxanthine [1]) | normalized RNA/DNA level with ligand (log10) (hypoxanthine [2]) | normalized RNA/DNA level without ligand (log10) (hypoxanthine [3]) | FACS-Seq fitted mean (log10) (hypoxanthine [4]) |
| --- | --- | --- | --- | --- |
| AGACUU | 0.58 ± 0.039 | 1.946 ± 0.008 | 1.9 ± 0.021 | 0.5558 ± 0.0047 |
| AGACUC | 0.486 ± 0.012 | 1.944 ± 0.016 | 1.94 ± 0.034 | 0.646 ± 0.01 |
| UGAGAA | 0.552 ± 0.021 | 1.86 ± 0.019 | 1.74 ± 0.018 | 0.638 ± 0.083 |
| UGAGAU | 0.648 ± 0.051 | 1.887 ± 0.017 | 1.713 ± 0.0063 | 0.743 ± 0.033 |
| UGAGAG | 0.372 ± 0.012 | 1.87 ± 0.03 | 1.67 ± 0.04 | 0.364 ± 0.023 |
| CGAGUC | 0.0141 ± 0.11 | 1.958 ± 0.016 | 1.91 ± 0.094 | 0.106 ± 0.053 |
| CGAGUU | 0.866 ± 0.02 | 2 ± 0.039 | 1.834 ± 0.015 | 0.833 ± 0.11 |
| AGAGCG | 0.488 ± 0.026 | 1.81 ± 0.024 | 1.401 ± 0.002 | 0.431 ± 0.067 |
| GGCCGU | 0.465 ± 0.071 | 1.95 ± 0.034 | 1.945 ± 0.014 | 0.502 ± 0.0071 |
| AGCCUG | 0.523 ± 0.04 | 1.92 ± 0.059 | 1.5724 ± 0.00079 | 0.67 ± 0.037 |
| AGCCUU | 0.466 ± 0.071 | 1.97 ± 0.022 | 1.933 ± 0.0025 | 0.317 ± 0.091 |
| AGCGGA | 0.427 ± 0.044 | 1.945 ± 0.0055 | 1.71 ± 0.036 | 0.456 ± 0.021 |
| AGCGGG | 0.579 ± 0.16 | 1.9573 ± 0.00092 | 1.754 ± 0.0053 | 0.732 ± 0.094 |
| GGAGGU | 0.54 ± 0.019 | 1.923 ± 0.013 | 1.779 ± 0.01 | 0.48 ± 0.021 |
| GGAGGA | -0.168 ± 0.034 | 1.934 ± 0.0025 | 1.64 ± 0.078 | 0.231 ± 0.0056 |
| UGCCUG | 0.608 ± 0.0066 | 1.91 ± 0.1 | 1.73 ± 0.042 | 0.712 ± 0.07 |
| UGCCUA | 0.664 ± 0.022 | 1.94 ± 0.039 | 1.929 ± 0.0053 | 0.57 ± 0.049 |
| UGCCUC | 0.735 ± 0.008 | 2 ± 0.064 | 2.01 ± 0.023 | 0.659 ± 0.051 |
| GGCGCA | 0.59 ± 0.026 | 1.977 ± 0.0052 | 1.893 ± 0.0039 | 0.6023 ± 0.0039 |
| UGCUCA | 0.419 ± 0.016 | 1.94 ± 0.0052 | 1.98 ± 0.061 | 0.498 ± 0.057 |
| CGCAAA | 0.57 ± 0.013 | 1.897 ± 0.0028 | 1.7 ± 0.022 | 0.491 ± 0.024 |
| CGCGGG | 0.374 ± 0.021 | 1.84 ± 0.026 | 1.36 ± 0.036 | 0.72 ± 0.051 |
| UGCCCA | 0.234 ± 0.013 | 1.944 ± 0.002 | 1.92 ± 0.043 | -0.0574 ± 0.058 |
| UGAUGA | 0.599 ± 0.053 | 1.906 ± 0.0054 | 1.58 ± 0.035 | 0.575 ± 0.14 |

| Variant | FACS-Seq fitted mean (log10) (hypoxanthine [1]) | normalized RNA/DNA level with ligand (log10) (hypoxanthine [2]) | normalized RNA/DNA level without ligand (log10) (hypoxanthine [3]) | FACS-Seq fitted mean (log10) (hypoxanthine [4]) |
| --- | --- | --- | --- | --- |
| GGAGCU | 0.211 ± 0.041 | 1.956 ± 0.0072 | 1.96 ± 0.044 | -0.117 ± 0.033 |
| GGAGCG | 0.171 ± 0.034 | 1.93 ± 0.043 | 1.49 ± 0.04 | 0.456 ± 0.023 |
| GGAGCA | 0.654 ± 0.037 | 1.946 ± 0.0077 | 1.783 ± 0.0088 | 0.686 ± 0.1 |
| CGCCAG | 0.462 ± 0.027 | 1.99 ± 0.051 | 1.84 ± 0.12 | 0.537 ± 0.0082 |
| UGCUAU | 0.535 ± 0.025 | 1.93 ± 0.023 | 1.88 ± 0.028 | 0.662 ± 0.05 |
| GGCUCA | 0.301 ± 0.011 | 1.98 ± 0.031 | 1.91 ± 0.074 | 0.297 ± 0.024 |
| UGAUAU | 0.0888 ± 0.12 | 1.96 ± 0.028 | 1.776 ± 0.016 | 0.0923 ± 0.28 |
| AGAGAU | 0.123 ± 0.09 | 1.85 ± 0.052 | 1.731 ± 0.0098 | -0.481 ± 0.049 |
| AGAGAA | 0.479 ± 0.04 | 1.882 ± 0.0051 | 1.69 ± 0.047 | 0.467 ± 0.0095 |
| AGAGAG | 0.482 ± 0.014 | 1.75 ± 0.036 | 1.32 ± 0.069 | 0.443 ± 0.038 |
| CGAGAA | 0.492 ± 0.014 | 1.907 ± 0.0062 | 1.58 ± 0.0075 | 0.65 ± 0.015 |
| CGAGAG | 0.304 ± 0.055 | 1.9 ± 0.078 | 1.71 ± 0.032 | 0.258 ± 0.014 |
| GGCCUG | 0.145 ± 0.02 | 1.99 ± 0.062 | 1.809 ± 0.013 | 0.239 ± 0.046 |
| UGAGCG | 0.3069 ± 0.0029 | 1.9 ± 0.049 | 1.7 ± 0.043 | 0.323 ± 0.026 |
| UGAGCU | 0.136 ± 0.16 | 1.918 ± 0.018 | 1.904 ± 0.017 | -0.0419 ± 0.064 |
| UGAGCC | 0.846 ± 0.017 | 2.003 ± 0.02 | 1.94 ± 0.051 | 0.805 ± 0.11 |
| UGAUCG | 0.52543 ± 0.00029 | 1.93 ± 0.02 | 1.81 ± 0.025 | 0.589 ± 0.045 |
| AGCGUC | 0.8 ± 0.033 | 1.971 ± 0.0074 | 1.966 ± 0.01 | 0.743 ± 0.075 |
| AGCGUG | 0.152 ± 0.014 | 1.798 ± 0.014 | 1.37 ± 0.042 | 0.398 ± 0.032 |
| AGAGGA | 0.5707 ± 0.0052 | 1.892 ± 0.016 | 1.6297 ± 0.00023 | 0.701 ± 0.028 |
| AGAGGU | 0.557 ± 0.061 | 1.9 ± 0.035 | 1.52 ± 0.032 | 0.802 ± 0.07 |
| CGAUAG | 0.613 ± 0.0027 | 1.86 ± 0.12 | 1.7 ± 0.063 | 0.639 ± 0.052 |
| CGAUAA | 0.668 ± 0.13 | 1.86 ± 0.047 | 1.57 ± 0.022 | 0.637 ± 0.12 |
| CGAUAC | -0.0585 ± 0.029 | 1.894 ± 0.0067 | 1.69 ± 0.019 | 0.176 ± 0.056 |

| Variant | FACS-Seq fitted mean (log10) (hypoxanthine [1]) | normalized RNA/DNA level with ligand (log10) (hypoxanthine [2]) | normalized RNA/DNA level without ligand (log10) (hypoxanthine [3]) | FACS-Seq fitted mean (log10) (hypoxanthine [4]) |
| --- | --- | --- | --- | --- |
| CGAGGU | 0.491 ± 0.077 | 1.96 ± 0.027 | 1.86 ± 0.019 | 0.625 ± 0.12 |
| CGAGGG | -0.0981 ± 0.041 | 1.8 ± 0.077 | 1.3 ± 0.047 | 0.0226 ± 0.19 |
| UGAGUG | 0.274 ± 0.026 | 1.9 ± 0.0079 | 1.64 ± 0.047 | 0.263 ± 0.019 |
| UGAGUC | 0.177 ± 0.08 | 1.99 ± 0.004 | 1.97 ± 0.025 | -0.0516 ± 0.012 |
| AGACGU | 0.722 ± 0.019 | 1.9 ± 0.043 | 1.59 ± 0.03 | 0.696 ± 0.067 |
| CGAGCA | 0.378 ± 0.011 | 1.942 ± 0.0082 | 1.716 ± 0.012 | 0.543 ± 0.087 |
| CGCUGC | 0.163 ± 0.06 | 1.98 ± 0.096 | 1.95 ± 0.083 | 0.518 ± 0.079 |
| CGCUGA | 0.643 ± 0.033 | 1.9529 ± 0.00012 | 1.89 ± 0.03 | 0.635 ± 0.0074 |
| AGCUAC | -0.583 ± 0.06 | 1.96 ± 0.058 | 1.778 ± 0.0088 | -0.175 ± 0.051 |
| UGCCGG | -0.14 ± 0.0069 | 1.938 ± 0.0072 | 1.71 ± 0.068 | -0.119 ± 0.14 |
| CGAUUU | 0.4582 ± 0.0022 | 1.92 ± 0.089 | 1.847 ± 0.012 | 0.5218 ± 0.0046 |
| CGAUUC | 0.279 ± 0.048 | 1.976 ± 0.0063 | 1.89 ± 0.02 | 0.313 ± 0.0095 |
| CGAUUA | 0.312 ± 0.038 | 1.9239 ± 0.001 | 1.64 ± 0.034 | 0.569 ± 0.13 |
| AGCCCG | -0.024 ± 0.027 | 1.956 ± 0.0061 | 1.61 ± 0.087 | 0.388 ± 0.038 |
| AGCCCA | 0.0335 ± 0.1 | 1.923 ± 0.018 | 1.88 ± 0.025 | -0.145 ± 0.064 |
| CGCUAG | 0.118 ± 0.0022 | 1.89 ± 0.063 | 1.79 ± 0.051 | 0.183 ± 0.14 |
| AGCUUC | -0.1877 ± 0.00023 | 2.019 ± 0.0075 | 1.927 ± 0.016 | -0.0634 ± 0.021 |
| GGCGAU | 0.679 ± 0.071 | 1.97 ± 0.062 | 1.9 ± 0.063 | 0.587 ± 0.0063 |
| AGCAAG | 0.616 ± 0.025 | 1.81 ± 0.024 | 1.45 ± 0.056 | 0.87 ± 0.096 |
| AGCAAC | 0.133 ± 0.046 | 1.91 ± 0.054 | 1.79 ± 0.043 | 0.1066 ± 0.00061 |
| AGCAAU | 0.645 ± 0.018 | 1.9127 ± 0.00078 | 1.8332 ± 0.00014 | 0.608 ± 0.03 |
| GGAGAG | 0.274 ± 0.052 | 1.81 ± 0.058 | 1.3 ± 0.017 | 0.507 ± 0.023 |
| GGAGAC | -0.358 ± 0.15 | 1.86 ± 0.066 | 1.75 ± 0.086 | 0.13 ± 0.024 |
| GGAGAA | 0.538 ± 0.019 | 1.92 ± 0.022 | 1.68 ± 0.053 | 0.643 ± 0.034 |
